Data published in patent US20040220079A1 (OKLAHOMA MEDICAL RESEARCH FOUNDATION, published 2004).
No end group written: not given here.

Key:
recombinant memapsin 2 [1] = target: T1, recombinant memapsin 2 (human, UniProt P56817 14-454, limits assumed); experiment: inhibition constant quoted in the crystallisation example
T1 construct: also called M2; beta-secretase

recombinant memapsin 2 [2] = target: T1, recombinant memapsin 2; experiment: comparison of inhibition constants with and without P4 Glu
recombinant memapsin 2 [3] = target: T1, recombinant memapsin 2; experiment: enzyme inhibition with a synthetic fluorogenic peptide substrate

T1 sequence (P56817 14-454 limits assumed): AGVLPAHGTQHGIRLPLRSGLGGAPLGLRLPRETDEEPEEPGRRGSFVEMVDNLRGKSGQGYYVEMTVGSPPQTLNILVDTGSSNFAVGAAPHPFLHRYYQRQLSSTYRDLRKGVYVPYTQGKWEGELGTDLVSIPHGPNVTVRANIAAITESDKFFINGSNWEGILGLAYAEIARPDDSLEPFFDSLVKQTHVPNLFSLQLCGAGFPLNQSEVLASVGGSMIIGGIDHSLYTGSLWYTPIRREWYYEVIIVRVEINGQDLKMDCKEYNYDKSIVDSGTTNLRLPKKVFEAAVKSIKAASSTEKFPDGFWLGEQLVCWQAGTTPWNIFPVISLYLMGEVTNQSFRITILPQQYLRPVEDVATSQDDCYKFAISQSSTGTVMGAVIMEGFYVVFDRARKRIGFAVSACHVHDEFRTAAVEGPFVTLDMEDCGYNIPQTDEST

B1: OM99-2 (peptide)
peptide: EVNLAAEF
modifications: also: Leu-Ala peptide bond replaced by hydroxyethylene isostere -CH(OH)-CH2- (Leu*Ala)
**Q.** B1 was tested. Which Ki (recombinant memapsin 2 [1]) did it give?
**A.** 10 nM

B2: OM99-1 (peptide)
peptide: VNLAAEF
modifications: also: Leu-Ala peptide bond replaced by hydroxyethylene isostere -CH(OH)-CH2-
notes: also called OMR99-1; Val-Asn-Leu*Ala-Ala-Glu-Phe
**Q.** Which results are given for B2?
**A.** fold increase in Ki against OM99-2 (recombinant memapsin 2 [2]): 10 fold; Ki (recombinant memapsin 2 [3]): 30 nM
